# Assay results from the supplement of paper PMC9170038.
# Test system: MS2 coat protein
# Experiment: apparent KD of MS2 coat protein; designed switch direction (-1 OFF switch, 1 ON switch): -1; higher = weaker reporter binding
# Procedure, shortened: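 SNAP-549-labelled MS2 coat protein was titrated, doubling from 0.7 or 1.5 nM to 3 µM, over designed RNA switches transcribed on Illumina chips by stalled E. coli RNA polymerase. Runs were done without input, with 200 uM small-molecule ligand, or with an oligonucleotide input. Apparent KD is the per-design median over clusters of curve-fitted normalised fluorescence.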
# [1] = input ligand: microRNA oligo, concentration not stated
# [2] = Eterna round: R95, input ligand: FMN 200 uM
# [3] = Eterna round: R95, input ligand: microRNA oligo, concentration not stated
# [4] = Eterna round: R95, input ligand: none
Sequence,apparent KD of MS2 coat protein (input ligand: FMN 200 uM) [nM],apparent KD of MS2 coat protein (input ligand: none) [nM],apparent KD of MS2 coat protein [1] [nM],apparent KD of MS2 coat protein [3] [nM],other results
"GGCAUGCAAGGAUAUACUUGCAGUGAUAUUCGAUAAAGUCUACUUGAGGAUCACCCAAGUAGAAGGUGCAUGCC [Exclusion 2 (Mod6 JL EX2 4.74 Vienna UCT mod of Mamaed)] (Eterna round: R97, puzzle: Exclusion 2)",35,25.8,,,
"ACACAUGAGGAUCACCCAUGUCGGGUCAUAUCCUUCGAGGGCUAGGAUAUCGGGACUACGAAGCCCGAGAAGGAGCACUCGUUA [Ceorsobi] (Eterna round: R96, puzzle: Exclusion NG 3)",251,105,66.3,,
CAGGUGUUAGGAUAUCGGAGAUCGAGGCCGACGGGAAAAGCCGAGAAGGAACAUGAGGAUCACCCAUGUAGGUG [JR_Exclu4_Sub035] (puzzle: Exclusion 4),,,,235,apparent KD of MS2 coat protein [2]: 347 nM; apparent KD of MS2 coat protein [4]: 223 nM
"GUUGUGUUAGGAUAUAACAACUACUAAUAAAUUAGUAGUUGUUAGAAGGAACAUGAGGAUCACCCAUGUAUGAC [-21.3, -20.2 kcal, A 36%] (Eterna round: R97, puzzle: Exclusion 4)",52.5,30.5,,,
CUGAUGUUAGGAUAUCAGGCGCCCGCCACUAGCAGGGCGCAUGAGAAGGGACAUGAGGAUCACCCAUGUAGUAA [Anbionxe] (puzzle: Exclusion 4),,,,27.3,
"AGUAGAUCUACGCUUGCGUGGAUCUGCUAGGCAGGUGUUACAUGAGGAUCACCCAUGUCCUCAUUUGUUCGUCUUAU [JL turnoff v2 99.17] (puzzle: Sensor v3, turn-off variant 2)",,,,153,apparent KD of MS2 coat protein [2]: 378 nM; apparent KD of MS2 coat protein [4]: 604 nM
"UGACGCACGCGAGGAUAUUCCCACGAAACAAACAACGAAGGGUACAUGAGGAUCACCCAUGUGGCGAAGAAGGCGCGCGUCCGG [Eternabot solution 1] (Eterna round: R96, puzzle: Exclusion NG 2)",923,1310,503,,
UAUACACAUGAGGAUCACCCAUGUGAGGAUAUGUUAAUUUUAAUGAAAAUUAAAAUUAACAGAAGGCACAUAUA [JR_Exclusion1_Sub025] (puzzle: Exclusion 1),,,,67.2,
"UGAGUGCUGCGAGGAUAUACAUGAGGAUCACCCAUGUGGAUGUCUGAGGCUUUGCCUCAGACGAUGUAGAAGGCGCAGUACUCU [JL ENG2 1.20] (Eterna round: R96, puzzle: Exclusion NG 2)",100,22.1,15.2,,
CAUACUCAAGUCAGGAUAUAGAGUCGGAUACGGAUCUAGAAGGGACAUGAGGAUCACCCAUGUAGAGAGUAAAG [EX-4 Malc #25] (puzzle: Brourd's mod of Exclusion 4),,,,38,apparent KD of MS2 coat protein [2]: 88 nM; apparent KD of MS2 coat protein [4]: 21.1 nM
"UUUUUAUAUGAAGGAUAUACUUAACAUGAGGAUCACCCAUGUGGUGUUGUGAGUGAGUGAGUUUAGUAGAAGGUCAAUUAUUGU [JMF's solution 16] (Eterna round: R96, puzzle: Exclusion NG 2)",2260,394,155,,
"CUUCAUCCACCAGAGCUCACACUUAUACCUGCUCUGGUGACAUGAGGAUCACCCAUGUUUUUUGCCCGUCUUAUCUU [Sensor v3, turn-off variant 2 (MOD of Leso)] (puzzle: Sensor v3, turn-off variant 2)",,,,19.8,apparent KD of MS2 coat protein [2]: 149 nM; apparent KD of MS2 coat protein [4]: 207 nM
"UUAUGAGAGCAGGAUAUCUUAUAUUUUUUUUAAAGAGAAGGGCUCACAUGAGGAUCACCCAUGUGGUCCUAGAU [LRO-Excl6-21-mod of 4.86 by jal] (Eterna round: R97, puzzle: Exclusion 6)",234,36.8,,,
"UUCUCGUCAGGAUAUUUGUUGUUGUUGGAAACGGCGGCGGCGGAGAAGGGACAUGAGGAUCACCCAUGUCUGGU [-27.7, -24.8 kcal, 20% A] (Eterna round: R97, puzzle: Exclusion 4)",28.5,21.2,,,
"AGCGAGGCAGGAUAUACAUGAGGAUCACCCAUGUGCUUGCAUGGCGUGGGACGUCAACGUAGAAGGGCCAUGCC [EX3 #68] (Eterna round: R97, puzzle: Exclusion 3)",76.3,117,,,
AGAUUACGAGGAUAUCGAUUUUAGUACAUGAGGAUCACCCAUGUUAUCCAGGUCUCGUUUCGAGAAGGCGUGAUUC [LRO-Ex5-07] (puzzle: Exclusion 5),,,,196,
UUUUUGUGAGGAUAUCAGUAGUAAAAUAAAUAAAUUACUACUGAGAAGGCACAUGAGGAUCACCCAUGUUCCUU [Mat - Exclusion 4 - Mod of Salish - D66] (puzzle: Exclusion 4),,,,13.7,
"UACAUGAGGAUCACCCAUGUUUUGUCGUGUAUGGUAUUUAUCUAGGAUAUCAUUUUAGUUAGUUAUGAGAAGGAGAAUAUUAAU [JMF's solution 88] (Eterna round: R96, puzzle: Exclusion NG 3)",,,26.4,,

Sequence,apparent KD of MS2 coat protein (input ligand: FMN 200 uM) [nM],apparent KD of MS2 coat protein (input ligand: none) [nM],apparent KD of MS2 coat protein [1] [nM],apparent KD of MS2 coat protein [3] [nM],other results
"UACAUGAGGAUCACCCAUGUUUUGUCGUGUAUGGUAUUUAUCUAGGAUAUCAUUGUAUUUAUUUAUGAGAAGGAGAAUAUUAAU [JMF's solution 96] (Eterna round: R96, puzzle: Exclusion NG 3)",34.4,32.6,24,,
AAUGUUGAUGUGAGGAUAUACAUAGUUUGACCGUAGUAGAAGGCACAUGAGGAUCACCCAUGUAGAUGUUUGGU [JR_BME4_Sub004] (puzzle: Brourd's mod of Exclusion 4),,,,12.5,
"GAUCCUUUUACGGACGUCUCGAAACAUGAGGAUCACCCAUGUGAGGAUAUCUCCGAAAGGUCGGCAGAGAAGGCACAAUAACAA [MOD2 Eternabot solution 19 score 84.66] (Eterna round: R96, puzzle: Exclusion NG 3)",29.4,18.7,13,,
"AGUCCUAGUCAAGGAUAUACACCGAAGAAAUACGUAGAAGGUGACAUGAGGAUCACCCAUGUAGGGACUCUGGAAACAGAGGAA [Arordi] (Eterna round: R96, puzzle: Exclusion NG 1)",161,218,93.4,,
"ACAUGAGGAUCACCCAUGUUUGGCUGGUCCUCUCCGGCUGUCGAGGAUAUAGUACGGUAUCCGCGCUAGAAGGUGAGGGCCGGC [Aenatbe] (Eterna round: R96, puzzle: Exclusion NG 3)",16.4,17.1,10.1,,
"CGUAUGUCAGGAUAUCGUGCAUACAACGAAAGUUCUAUGUGCGAGAAGGGACAUGAGGAUCACCCAUGUCUUCG [Omei Ex4 A13] (Eterna round: R97, puzzle: Exclusion 4)",42.8,23.6,,,
"UAAUUAGCAAGUAGAUCCGACAUGAGGAUCACCCAUGUUAUCUGAAAGAACGCAGAAUAAUUGUGAGCUCGUCUAAA [Sensor-V1 #2] (Eterna round: R97, puzzle: Sensor, turn-off variant 1)",144,154,,,
GUGCGGUGAGGAUAUACGUAGGUGAAAAUCUGUGUGCUCCUACAUGAGGAUCACCCAUGUAGAAGGCAUGUCAC [LRO-Excl2-15] (puzzle: Exclusion 2),,,,14.7,
GGGUAGUGAGGAUAUCGUUGUUAGGAGGAGUAGGUAGGAGGCGAGAAGGCACAUGAGGAUCACCCAUGUAUGGA [JR_Exclu4_Sub067] (puzzle: Exclusion 4),,,,30.7,
"UUGUAAUGAUUAGGAUAUUAUUAAUAGAACUUUAUGAUAUACAUGAGGAUCACCCAUGUUACUUAUAAGAAGGAAUCGUAUUAU [JR_ExcNG2_Sub092] (Eterna round: R96, puzzle: Exclusion NG 2)",,,15.7,,
GGUGGACAUGAGGAUCACCCAUGUGAGGAUAUCGGCUGGCUACUCGCUGACGGCUGCUCGAGAAGGCGCAUUGU [Exclusion 1 V88] (puzzle: Exclusion 1),,,,41.7,
CUUCAGUGAGGAUAUGGCAUGCGCUGAUAAGCGCUCUCACGCCAGAAGGCACAUGAGGAUCACCCAUGUAAAAC [Eddionce] (puzzle: Exclusion 4),,,,41.3,
"UGAUCUAGCGGAGGAUAUACAUGAGGAUCACCCAUGUAGAUGAGUGUACCGUAGUGCACUAUUGUGUAGAAGGCCGCUAGAUCU [JL ENG2 3.63] (Eterna round: R96, puzzle: Exclusion NG 2)",69.9,19.8,13.7,,
"AAUACUAACACGAAAGUGUUAGUAAAAUAAGCUUGUGGUACAUGAGGAUCACCCAUGUCCUCAUAAGCUCGUCUUAU [Mat - Sensor v3 - Turn-off var 2 - D43] (puzzle: Sensor v3, turn-off variant 2)",,,,75.4,apparent KD of MS2 coat protein [2]: 23 nM; apparent KD of MS2 coat protein [4]: 21.4 nM
"UAUGGUUAAGUCAGGAUAUGCACGCAGAGAACAAAGCAGAAGGGACAUGAGGAUCACCCAUGUAAAGUCGUGUU [Ex4 #77] (Eterna round: R97, puzzle: Brourd's mod of Exclusion 4)",31.2,23,,,
GGAUCGAGUGUGAGGAUAUACCACUGGAUACAGUGGUAGAAGGCACAUGAGGAUCACCCAUGUCCUUACGAUCC [Fiskers BMX 4 - 46] (puzzle: Brourd's mod of Exclusion 4),,,,66,
"GAGUACAGAGGAUAUACAUGAGGAUCACCCAUGUGUUUCAGCUAGGAGACUAGCGAAAGUAGAAGGCUGUACUG [salish99_ex3_r4_006] (Eterna round: R97, puzzle: Exclusion 3)",23.4,10.3,,,
